This passage reports binding result, EC50 and IC50 results from patent publication US20250326840A1 (QURE BIOTECHNOLOGY SHANGHAI, published 2025).

Experiment [1] concerns the target SIRPα V8 fusion Fc (mouse IgG2a) (human). In words: ELISA, SIRPα V8-mouse IgG2a Fc coated, anti-hFab detection. (In an ELISA, binding on a coated surface is turned into a signal by an enzyme label.)
In experiment [2] the target is QP003 (PDL1-his). In words: ELISA, QP003 (PDL1-his) captured on coated anti-his, anti-hFc detection; unit from the x axis; the curve is flat at the baseline, the fit is marked ambiguous (~).
Another experiment concerns the target T1, QP002 (biotinylated in the blocking assays, sites not given).
T1 construct: also called SIRPα-FC; Biotin-QP002
In words: blocking ELISA: CD47 FC (QP001) coated, biotin SIRPα-FC (QP002) mixed with the antibody, HRP-streptavidin; blocked ligand: CD47; unit from the x axis Log(Conc.(nM)).

Experiment [3] concerns the target QP003 (PDL1-his). In words: ELISA, QP003 (PDL1-his) captured on coated anti-his, anti-hFc detection; unit from the x axis; no rising curve is seen for it, the fit is marked ambiguous (~).

Sequence of QP003 (PDL1-his) (chain, as listed by the source limits assumed): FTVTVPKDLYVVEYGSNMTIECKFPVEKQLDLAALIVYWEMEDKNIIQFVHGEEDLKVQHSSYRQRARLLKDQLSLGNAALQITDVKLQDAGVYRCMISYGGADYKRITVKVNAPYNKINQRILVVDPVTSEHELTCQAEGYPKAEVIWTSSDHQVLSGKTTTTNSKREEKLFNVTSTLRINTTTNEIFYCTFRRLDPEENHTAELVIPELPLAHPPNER
Sequence of SIRPα V8 fusion Fc (mouse IgG2a) (human) (chain, as listed by the source limits assumed): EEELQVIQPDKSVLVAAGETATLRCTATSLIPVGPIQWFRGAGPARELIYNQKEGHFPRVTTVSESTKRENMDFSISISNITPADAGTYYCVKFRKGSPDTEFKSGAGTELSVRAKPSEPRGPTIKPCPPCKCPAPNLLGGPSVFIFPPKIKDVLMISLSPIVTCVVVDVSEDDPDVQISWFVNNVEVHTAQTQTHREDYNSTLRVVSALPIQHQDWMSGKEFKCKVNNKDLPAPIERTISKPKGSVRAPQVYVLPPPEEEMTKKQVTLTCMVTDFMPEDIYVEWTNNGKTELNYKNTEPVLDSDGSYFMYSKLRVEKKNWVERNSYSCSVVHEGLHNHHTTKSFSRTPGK
T1 sequence (SIRPα-Fc fusion chain, as listed by the source): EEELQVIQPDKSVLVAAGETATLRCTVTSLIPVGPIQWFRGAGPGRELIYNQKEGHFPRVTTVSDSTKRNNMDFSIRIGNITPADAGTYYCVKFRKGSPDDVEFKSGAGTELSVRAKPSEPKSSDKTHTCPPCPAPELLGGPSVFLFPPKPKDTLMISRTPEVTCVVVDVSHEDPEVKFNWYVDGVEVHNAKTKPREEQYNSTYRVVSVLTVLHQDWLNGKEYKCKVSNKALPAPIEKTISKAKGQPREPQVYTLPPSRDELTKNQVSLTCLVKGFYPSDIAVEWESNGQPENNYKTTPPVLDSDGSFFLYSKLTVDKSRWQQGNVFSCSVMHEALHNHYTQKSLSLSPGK

B1: QP250251 (18D5 analog) (antibody, human IgG4 S228P, kappa, V domains shown)
VH: QVQLQQPGAELVRPGSSVKLSCKASGYTFTSYWVHWVKQRPIQGLEWIGNIDPSDSDTHYNQKFKDKASLTVDKSSSTAYMQLSSLTFEDSAVYYCVRGGTGTMAWFAYWGQGTLVTVSA
VL: DVVMTQTPLSLPVSLGDQASISCRSSQSLVHSYGNTYLYWYLQKPGQSPKLLIYRVSNRFSGVPDRFSGSGSGTDFTLKISRVEAEDLGVYFCFQGTHVPYTFGSGTKLEIKR
notes: also called SIRPα antibody 18D5 from OSE
In the case of B1, the binding result in experiment [1] is on record as “no binding (tested: about 67 nM (last point at log 1.8))”.

B2: QP32700279 (antibody, human IgG1, kappa, L234A L235A, V domains shown)
VH: QVQLVQSGAEVKKPGASVKVSCKASGYTFTNYWINWVRQAPGQGLEWIAMIDPSDSETHYNQIFKDRATLTTDTSTSTAYMELRSLRSDDTAVYYCAMDYGSLYAMDYWGRGTLVTVSS
VL: DIVLTQSPDSLAVSLGERATINCRASQSVRSSGYNWIFWYQQKPGQPPKLLIYLASNRDSGVPDRFSGSGSGTDFTLTISSLQAEDVAVYYCQHSRELPTFGQGTKLEIKR
notes: also called SIRPα monoclonal antibody CHO71
With B2, the EC50 (as a rule, the midpoint of the concentration-response curve) in the experiment with QP003 (PDL1-his) [2] was around 0.628 pM. Besides, the IC50 (in general, the concentration at which inhibition is half-maximal) with QP002 is 208 pM.

B3: QP026249 (KWAR23 analog) (antibody, human IgG4 S228P, kappa)
heavy: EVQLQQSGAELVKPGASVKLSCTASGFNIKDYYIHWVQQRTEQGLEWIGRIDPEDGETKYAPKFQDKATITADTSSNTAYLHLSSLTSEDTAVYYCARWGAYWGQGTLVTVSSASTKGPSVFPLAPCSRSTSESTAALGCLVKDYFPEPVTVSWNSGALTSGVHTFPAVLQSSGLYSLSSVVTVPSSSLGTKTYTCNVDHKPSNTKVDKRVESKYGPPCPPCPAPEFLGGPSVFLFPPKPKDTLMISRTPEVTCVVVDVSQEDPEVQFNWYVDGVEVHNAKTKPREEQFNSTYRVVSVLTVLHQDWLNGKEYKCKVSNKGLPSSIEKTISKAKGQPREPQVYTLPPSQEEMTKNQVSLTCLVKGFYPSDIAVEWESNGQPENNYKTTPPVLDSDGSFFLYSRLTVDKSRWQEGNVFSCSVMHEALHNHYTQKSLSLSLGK
light: QIVLTQSPAIMSASPGEKVTLTCSASSSVSSSYLYWYQQKPGSSPKLWIYSTSNLASGVPARFSGSGSGTSYSLTISSMEAEDAASYFCHQWSSYPRTFGAGTKLELKRTVAAPSVFIFPPSDEQLKSGTASVVCLLNNFYPREAKVQWKVDNALQSGNSQESVTEQDSKDSTYSLSSTLTLSKADYEKHKVYACEVTHQGLSSPVTKSFNRGEC
notes: also called KAWA23 analog; control antibody KWAR23 (QP026249), human IgG4
In the experiment with QP003 (PDL1-his) [3], B3 registered an EC50 of around 0.685 pM.
